Measured values from paper PMC11161652, “ASXLs binding to the PHD2/3 fingers of MLL4 provides a mechanism for the recruitment of BAP1 to active enhancers” (Nature Communications, 2024).

Columns and labels:
[1] = system: H3K4 (recombinant histone octamers or mono-nucleosomes); experiment: H3K4 histone methyltransferase assay; assay type: biochemical, human; settings: purified complexes, 50 μM S-adenosyl-L-methionine, 8 h at 30 °C, n = 2
Description: Equivalent amounts of purified ASXL2 WT and ΔMBH complexes were incubated with 0.5 μg of reconstituted recombinant mono-nucleosomes or histone octamers as substrates. All HMT assays were performed in 50 mM Tris-HCl pH 8, 100 mM KCl, 5 mM MgCl2, 0.1 mM DTT, 10% glycerol in the presence of 50 μM S-adenosyl-L-methionine (Sigma, A7007). After an 8 h incubation at 30 °C, 4X Laemmli buffer was added, the samples run on 15% SDS-PAGE and transferred on nitrocellulose membrane. Immunoblotting was performed with an anti-H3K4me1 (Ab8895, rabbit polyclonal) diluted 1:1000 followed by HRP conjugated secondary goat anti-rabbit antibody (Sigma) used at a 1:10,000 dilution. The immunoblots were visualized using a Western Lightning plus-ECL reagent (Perkin-Elmer). Anti-H4 (Abcam, Ab7311, rabbit polyclonal) was used at a 1:2,500 dilution.

[2] = system: active enhancer upstream of GRHL2 gene in K562 ASXL2 KD cells; experiment: ChIP-qPCR at active enhancer upstream of GRHL2; assay type: cell-based, human; settings: K562 ASXL2 KD cells complemented from AAVS1; IP/input corrected for total H3; three biological replicates
Description: K562 cell lines with knocked down expression of endogenous ASXL2 were obtained after double infection of lentivirus expressing Cas9 and 4 different gRNAs targeting the end of exon 1 (pLENTI_CRISPR_V2, co-selection by FACS with GFP). Clone 1 L was selected (obtained with gRNA 1: 5′-[…]-3′ cutting at the very end of exon 1) for transfection of WT and DMBH ASXL2 vectors for integration and stable expression from the AAVS1 safe harbor, as described for the tagged K562 cell lines used for purification. Expression levels of endogenous ASXL2, WT and ΔMBH ASXL2 were monitored by running SDS-PAGE and transferring onto nitrocellulose membrane. Anti-FLAG M2 conjugated to horseradish peroxidase (A8592, Sigma) was used at 1:10,000 dilution and anti-ASXL2, at 1:2,000 (Cell Signaling (E623X), CS71257, lot:1). Immunoblots were visualized using a Western Lightning plus ECL reagent (Perkin-Elmer).
Crosslinked chromatin from K562 cells and immunoprecipitations were prepared as previously described. For chromatin immunoprecipitation, 100 μg of chromatin was incubated with 2 μg anti-H2AK119ub (Cell Signaling, 8240S, D27C4 lot:9) or 3 μg anti-H3 (Abcam, ab1791, lot GR3421644-1), 2 μg anti-H3Kme1 (Abcam, ab8895, lot GR442591-1), 2 μg anti-H3K27ac (Thermo Fisher, MA5-23516, lot: ZA4181671) or 0.3 μg anti-H3K27me3 (Cell Signaling, C36B11, 9733 S lot:19) antibodies overnight at 4 °C. 25 μl of Protein A Dynabeads were then added to each sample, and the mixtures were incubated at 4 °C for 4 h. The beads were washed extensively and eluted with 1% SDS and 0.1 M NaHCO3. Cross-linked samples were reversed by heating overnight at 65 °C in the presence of 0.2 M NaCl. Samples were then treated with RNase A and proteinase K for 2 h, and DNA was recovered using MinElute PCR purification Kit (Qiagen, 28004) according to the manufacturer’s instructions. Quantitative real-time PCR corrected for primer efficiencies in the linear range was performed using SYBR Green I (Roche, 04877352001) on a LightCycler 480 (Roche). Primers for 5′ end of active enhancer: Fwd: 5′-[…]; Rev: 5′-[…]; For 3′ end: Fwd: 5′-[…], Rev: 5′-[…].

[3] = system: H2AK119; experiment: H2AK119 deubiquitination assay; assay type: biochemical, human; settings: purified complexes on human chromatin, 37 °C, 3 or 6 h, immunoblot
Description: The deubiquitination reactions were done by adding equivalent amounts of ASXL2 WT or ΔMBH (4 μl E1-F) native complexes purified from K562 cells to 0.5 μg of chromatin enriched extracts from K562 cells, incubated at 37 °C in 50 mM Tris-HCl pH 7.3, 50 mM NaCl, 1 mM MgCl2, 1 mM DTT, 1 mM PMSF, 10 μg/ml Leupeptin, 10 μg/ml Pepstatin A, 25 μg/ml Aprotinin. After 3 or 6 h incubation, 4X Laemmli buffer was added, the samples run on 15% SDS-PAGE and transferred on nitrocellulose membrane. Immunoblotting was performed with an anti-H2AK119ub (Cell Signaling, D27C4, rabbit polyclonal) diluted 1:2000 followed by HRP conjugated secondary goat anti-rabbit antibody (Sigma) used at a 1:10,000 dilution. The immunoblots were visualized using a Western Lightning plus-ECL reagent (Perkin-Elmer). Anti-H3 (Abcam, Ab1791, rabbit polyclonal) was used at a 1:50,000 dilution.
Cell pellets were harvested 2 days post-transfection and lysed with 10 times their own volume with EB300 lysis buffer (50 mM Tris pH 7.3, 300 mM NaCl, 0.5% Triton X100 (V/V), 5 mM EDTA, 50 mM NaF, 1 mM Na3VO4 (activated), 10 mM Beta-glycerol-phosphate, 1 mM DTT, 1 mM PMSF, 1/100 anti-protease (Sigma)). Lysates were incubated on ice for 30 min before centrifugation in a Sorvall Lynx 6000 (rotor: F21-8x50Y) at 15,000 RPM during 20 min. Supernatants were collected and diluted with EB0 (50 mM Tris pH 7.3, 0.5% Triton X100 (V/V), 5 mM EDTA, 50 mM NaF, 1 mM Na3VO4, 10 mM Beta-glycerol-phosphate, 1 mM DTT, 1 mM PMSF, 1/100 anti-protease) to adjust the final concentration of NaCl to 150 mM. Agarose anti-FlagM2 beads (40 μL) (Sigma, A2220) were added to each lysate and incubated overnight at 4 °C on a rotative system. The next day, beads were washed 5 times with the wash buffer (50 mM Tris pH 7.3, 150 mM NaCl, 0.5% Triton X100 (V/V), 1/500 anti-protease, 1 mM DTT, 1 mM PMSF). […] Following three elutions of 2 h each, the pooled fractions were incubated with 40 μL of anti-HA beads (Sigma A2095) overnight at 4 °C on a rotative system. […]

[4] = system: PR-DUB complex; experiment: Tandem affinity purification: association with PR-DUB complex; assay type: cell-based, human; settings: K562 soluble nuclear extracts, 3Flag-2Strep tag, western blot and mass spectrometry
Description: (§1) Isogenic K562 cell lines expressing 3xFlag2xStrep-tagged ASXL2 WT and ΔMBH (aa 650-670), were generated by integration at the AAVS1 safe harbor locus after DSB induction and recombination targeted by co-transfection with a ZFN expression plasmid, as previously described. 2 × 10^5 cells were transfected with 400 ng of ZFN expression vector and 4 μg of donor constructs. Selection and cloning were performed in RPMI medium supplemented with 0.5 μg/mL puromycin starting 2–3 days post transfection. Clones were obtained by limiting dilution and expanded before harvest for western blot analysis.
(§2) For purification of native complexes, after large-scale expansion of K562 clones, affinity purifications of tagged ASXL2 WT and ΔMBH (aa 650-670) were performed on nuclear extracts as previously described. Briefly, nuclear extracts were prepared following standard procedures and pre-cleared with CL6B Sepharose beads. […] Typically, 5–15 μl of the elutions (1–3% of total) was loaded on NuPAGE 4–12% Bis-Tris gels (Invitrogen) and analyzed by silver staining and western blots. […] Purified fractions were prepared and analyzed at the Proteomics Platform of the Quebec Genomic Center using an Orbitrap Fusion mass spectrometer (Thermo Fisher Scientific) as previously described. […]

[5] = system: D372K/D400K MLL3PHD2/3 mutant; experiment: GST pull-down, D372K/D400K MLL3PHD2/3; assay type: binding, human; settings: D372K/D400K GST-MLL3PHD2/3; HEK293FT lysate, western blot
Description: (§3) Pull-down assays were performed by mixing resin-bound GST-MLL3PHD2/3 and GST-MLL4PHD2/3 (wild type and mutants) with lysates of HEK293FT expressing Myc-ASXL1, Myc-ASXL2 or Myc-ASXL2ΔMBH. Pellets of HEK293FT cells transfected with the appropriate pDEST expression construct (15 μg/dish using polyethylenimine (PEI)) were lysed with 10 times their volume of lysis buffer (50 mM Tris pH 7.3, 100 mM NaCl, 1 mM DTT, 1 mM EDTA, 1 mM PMSF, 0.1% Tween20, 1/100 anti-protease (Sigma)) and sonicated with a probe sonicator (Branson digital sonifier 450) calibrated at 40% amplitude for 3–4 rounds during 40–60 s. Lysates were then centrifuged in a Sorvall Lynx 6000 (rotor: F21-8x50Y) at 15,000 RPM during 20 min. Approximatively 9 μg of purified GST-fusion proteins bound to GSH resin (Sigma, G4510) were used for each condition. Final volume of GSH resin was adjusted to 30 μl per condition with empty GSH beads and incubated with 1.5 mL of HEK293FT lysate expressing Myc-ASXL1, Myc-ASXL2 or Myc-ASXL2ΔMBH for 3 h at 4 °C on a rotative system. A fraction of the reaction mixture (80 μL) was collected as the input. After the incubation, beads were washed 5 times and mixed with 100 μL of Laemmli buffer. Samples were loaded on 8% or 15% SDS-acrylamide gels and processed for western blotting.

[6] = system: GST-MLL3PHD2/3; experiment: GST pull-down, WT MLL3PHD2/3; assay type: binding, human; settings: WT GST-MLL3PHD2/3; HEK293FT lysate, 3 h at 4 °C, western blot; n = 3
Description: as §3

[7] = system: MLL4PHD2/3 or MLL3PHD2/3 mutants; experiment: GST pull-down, mutated MLL3/4PHD2/3; assay type: binding, human; settings: mutated GST-MLL3/4PHD2/3; HEK293FT lysate, 3 h at 4 °C, western blot; n = 3
Description: as §3

[8] = system: MLL3/4 complexes; experiment: Tandem affinity purification: interaction with MLL3/4 complexes; assay type: cell-based, human; settings: K562 soluble nuclear extracts, 3Flag-2Strep tag, western blot and mass spectrometry
Description: as §1, §2

[9] = system: GST-MLL4PHD2/3; experiment: GST pull-down, WT MLL4PHD2/3; assay type: binding, human; settings: WT GST-MLL4PHD2/3; HEK293FT lysate, 3 h at 4 °C, western blot; n = 3
Description: as §3

B1: full-length ASXL2: full length wild type ASXL2 expressed in HEK293FT or K562 cells (protein)
chain: MREKGRRKKGRTWAEAAKTVLEKYPNTPMSHKEILQVIQREGLKEIRSGTSPLACLNAMLHTNSRGEEGIFYKVPGRMGVYTLKKDVPDGVKELSEGSEESSDGQSDSQSSENSSSSSDGGSNKEGKKSRWKRKVSSSSPQSGCPSPTIPAGKVISPSQKHSKKALKQALKQQQQKKQQQQCRPSISISSNQHLSLKTVKAASDSVPAKPATWEGKQSDGQTGSPQNSNSSFSSSVKVENTLLGLGKKSFQRSERLHTRQMKRTKCADIDVETPDSILVNTNLRALINKHTFSVLPGDCQQRLLLLLPEVDRQVGPDGLMKLNGSALNNEFFTSAAQGWKERLSEGEFTPEMQVRIRQEIEKEKKVEPWKEQFFESYYGQSSGLSLEDSKKLTASPSDPKVKKTPAEQPKSMPVSEASLIRIVPVVSQSECKEEALQMSSPGRKEECESQGEVQPNFSTSSEPLLSSALNTHELSSILPIKCPKDEDLLEQKPVTSAEQESEKNHLTTASNYNKSESQESLVTSPSKPKSPGVEKPIVKPTAGAGPQETNMKEPLATLVDQSPESLKRKSSLTQEEAPVSWEKRPRVTENRQHQQPFQVSPQPFLNRGDRIQVRKVPPLKIPVSRISPMPFHPSQVSPRARFPVSITSPNRTGARTLADIKAKAQLVKAQRAAAAAAAAAAAAASVGGTIPGPGPGGGQGPGEGGEGQTARGGSPGSDRVSETGKGPTLELAGTGSRGGTRELLPCGPETQPQSETKTTPSQAQPHSVSGAQLQQTPPVPPTPAVSGACTSVPSPAHIEKLDNEKLNPTRATATVASVSHPQGPSSCRQEKAPSPTGPALISGASPVHCAADGTVELKAGPSKNIPNPSASSKTDASVPVAVTPSPLTSLLTTATLEKLPVPQVSATTAPAGSAPPSSTLPAASSLKTPGTSLNMNGPTLRPTSSIPANNPLVTQLLQGKDVPMEQILPKPLTKVEMKTVPLTAKEERGMGALIATNTTENSTREEVNERQSHPATQQQLGKTLQSKQLPQVPRPLQLFSAKELRDSSIDTHQYHEGLSKATQDQILQTLIQRVRRQNLLSVVPPSQFNFAHSGFQLEDISTSQRFMLGFAGRRTSKPAMAGHYLLNISTYGRGSESFRRTHSVNPEDRFCLSSPTEALKMGYTDCKNATGESSSSKEDDTDEESTGDEQESVTVKEEPQVSQSAGKGDTSSGPHSRETLSTSDCLASKNVKAEIPLNEQTTLSKENYLFTRGQTFDEKTLARDLIQAAQKQMAHAVRGKAIRSSPELFSSTVLPLPADSPTHQPLLLPPLQTPKLYGSPTQIGPSYRGMINVSTSSDMDHNSAVPGSQVSSNVGDVMSFSVTVTTIPASQAMNPSSHGQTIPVQAFSEENSIEGTPSKCYCRLKAMIMCKGCGAFCHDDCIGPSKLCVSCLVVR
modifications: left off: Myc, end not stated, kept
notes: full length wild type ASXL2 expressed in HEK293FT or K562 cells
[1]
  mono-methylation of H3K4: clearly detected
[2]
  H2AK119ub level: decrease in H2AK119ub level at this enhancer
  H3K4me1 level: not affected
[3]
  de-ubiquitination of H2AK119: efficient and equivalent de-ubiquitination of H2AK119
[4]
  association with PR-DUB complex: stably associates with the expected components of the PR-DUB complex
[5]
  association in pull-down: unable to bind full-length ASXL2
[6]
  association in pull-down: detected
[7]
  association in pull-down: not with the MLL4PHD2/3 or MLL3PHD2/3 mutants
[8]
  interaction with MLL3/4 complexes: co-fractionation of the PR-DUB complex with the components of the MLL3/4 complexes
[9]
  association in pull-down: detected
